According to patent CN111138528A (INST MILITARY MEDICINE ACADEMY MILITARY SCIENCES PLA, dated 2020):

Target: GPdM (Ebola virus (EBOV), UniProt Q05320 33-632)
Test: ELISA, truncated GP coated, 5A8 titrated (method of Example 2)

B1: 单克隆抗体5A8 (antibody, V domains shown)
VH: EVQLLESGGGLVKPGGSLRLSCAASGFTFSDYYMNWIRQAPGKGLEWVSYISSSGKTIYYADSVKGRFTISRDNAKKSLYLQMNSLRAEDTAVYYCARDREIVISTTILLGSDHYAMDVWGQGTTVTVSS
VL: DIQMTQSPFTLSASVGDRVTITCRASQSINSYLNWYQQKPGKAPKLLIYSASSLQSGVPSRFSGSGSGTDFTLTISSLQPEDFAIYYCQQTYRTPYTFGQGTKVEIKT
B1 gave an EC50 of 8.2 ng/mL.
